Laboratory results as given in US20140087995A1 (published 2014).
Numbered stars: 1 amine (or outer) side, 2 acyl side, 3 side chain; on linkers, the order of the positions; unused ones are H or OH. Bridge positions count the residues as written; N and C are the ends. Side chains are listed from the residue outwards. Ends that are not written are not given here. * marks the point of attachment. C20 diacid = O=C(O)CCCCCCCCCCCCCCCCCCC(=O)*; γGlu = O=C(O)[C@H](CCC(=O)[*:2])N[*:1]

Each binder was assayed against T1, human calcitonin receptor (human, UniProt P30988 25-474) (assay: cell-based or functional assay).
T1 sequence (looked up): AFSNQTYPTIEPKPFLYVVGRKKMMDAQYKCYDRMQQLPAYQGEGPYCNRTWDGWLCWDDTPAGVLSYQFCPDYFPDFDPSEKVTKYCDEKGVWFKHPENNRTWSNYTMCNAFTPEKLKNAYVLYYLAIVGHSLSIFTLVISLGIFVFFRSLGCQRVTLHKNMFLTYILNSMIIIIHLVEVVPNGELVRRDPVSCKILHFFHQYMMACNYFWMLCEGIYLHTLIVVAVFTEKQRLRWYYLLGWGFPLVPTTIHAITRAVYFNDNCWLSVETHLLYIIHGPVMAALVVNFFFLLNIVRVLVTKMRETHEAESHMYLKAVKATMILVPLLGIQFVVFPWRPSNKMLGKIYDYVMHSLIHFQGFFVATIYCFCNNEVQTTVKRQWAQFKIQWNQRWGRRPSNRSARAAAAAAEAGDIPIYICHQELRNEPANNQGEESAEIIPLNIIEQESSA

Row | Binder | hCTR funct. EC50 [nM]
1 | K([γGlu-C20 diacid])CNTATCATQRLAHFLRHSSPNFGAIPSSTNVGSHTY-NH2 (disulfide 2-7; N-terminus assumed; SMILES CC[C@H](C)[C@H](NC(=O)[C@H](C)NC(=O)CNC(=O)[C@H](Cc1ccccc1)NC(=O)[C@H](CC(N)=O)NC(=O)[C@@H]1CCCN1C(=O)[C@H](CO)NC(=O)[C@H](CO)NC(=O)[C@H](Cc1c[nH]cn1)NC(=O)[C@H](CCCNC(=N)N)NC(=O)[C@H](CC(C)C)NC(=O)[C@H](Cc1ccccc1)NC(=O)[C@H](Cc1c[nH]cn1)NC(=O)[C@H](C)NC(=O)[C@H](CC(C)C)NC(=O)[C@H](CCCNC(=N)N)NC(=O)[C@H](CCC(N)=O)NC(=O)[C@@H](NC(=O)[C@H](C)NC(=O)[C@@H]1CSSC[C@H](NC(=O)[C@@H](N)CCCCNC(=O)CC[C@H](NC(=O)CCCCCCCCCCCCCCCCCCC(=O)O)C(=O)O)C(=O)N[C@@H](CC(N)=O)C(=O)N[C@@H]([C@@H](C)O)C(=O)N[C@@H](C)C(=O)N[C@@H]([C@@H](C)O)C(=O)N1)[C@@H](C)O)C(=O)N1CCC[C@H]1C(=O)N[C@@H](CO)C(=O)N[C@@H](CO)C(=O)N[C@H](C(=O)N[C@@H](CC(N)=O)C(=O)N[C@H](C(=O)NCC(=O)N[C@@H](CO)C(=O)N[C@@H](Cc1c[nH]cn1)C(=O)N[C@H](C(=O)N[C@@H](Cc1ccc(O)cc1)C(N)=O)[C@@H](C)O)C(C)C)[C@@H](C)O, also called compound 66) | 0.542
2 | K([γGlu-γGlu-C20 diacid])CNTATCATQRLANFLRHSSPNFGAIPSSTNVGHNTY-NH2 (disulfide 2-7; N-terminus assumed; SMILES CC[C@H](C)[C@H](NC(=O)[C@H](C)NC(=O)CNC(=O)[C@H](Cc1ccccc1)NC(=O)[C@H](CC(N)=O)NC(=O)[C@@H]1CCCN1C(=O)[C@H](CO)NC(=O)[C@H](CO)NC(=O)[C@H](Cc1c[nH]cn1)NC(=O)[C@H](CCCNC(=N)N)NC(=O)[C@H](CC(C)C)NC(=O)[C@H](Cc1ccccc1)NC(=O)[C@H](CC(N)=O)NC(=O)[C@H](C)NC(=O)[C@H](CC(C)C)NC(=O)[C@H](CCCNC(=N)N)NC(=O)[C@H](CCC(N)=O)NC(=O)[C@@H](NC(=O)[C@H](C)NC(=O)[C@@H]1CSSC[C@H](NC(=O)[C@@H](N)CCCCNC(=O)CC[C@H](NC(=O)CC[C@H](NC(=O)CCCCCCCCCCCCCCCCCCC(=O)O)C(=O)O)C(=O)O)C(=O)N[C@@H](CC(N)=O)C(=O)N[C@@H]([C@@H](C)O)C(=O)N[C@@H](C)C(=O)N[C@@H]([C@@H](C)O)C(=O)N1)[C@@H](C)O)C(=O)N1CCC[C@H]1C(=O)N[C@@H](CO)C(=O)N[C@@H](CO)C(=O)N[C@H](C(=O)N[C@@H](CC(N)=O)C(=O)N[C@H](C(=O)NCC(=O)N[C@@H](Cc1c[nH]cn1)C(=O)N[C@@H](CC(N)=O)C(=O)N[C@H](C(=O)N[C@@H](Cc1ccc(O)cc1)C(N)=O)[C@@H](C)O)C(C)C)[C@@H](C)O, also called compound 86) | 19.2
3 | K([γGlu-C20 diacid])CNTATCATQRLAHFLRHSSPNFGAIPSSTPVGSNTY-NH2 (disulfide 2-7; N-terminus assumed; SMILES CC[C@H](C)[C@H](NC(=O)[C@H](C)NC(=O)CNC(=O)[C@H](Cc1ccccc1)NC(=O)[C@H](CC(N)=O)NC(=O)[C@@H]1CCCN1C(=O)[C@H](CO)NC(=O)[C@H](CO)NC(=O)[C@H](Cc1c[nH]cn1)NC(=O)[C@H](CCCNC(=N)N)NC(=O)[C@H](CC(C)C)NC(=O)[C@H](Cc1ccccc1)NC(=O)[C@H](Cc1c[nH]cn1)NC(=O)[C@H](C)NC(=O)[C@H](CC(C)C)NC(=O)[C@H](CCCNC(=N)N)NC(=O)[C@H](CCC(N)=O)NC(=O)[C@@H](NC(=O)[C@H](C)NC(=O)[C@@H]1CSSC[C@H](NC(=O)[C@@H](N)CCCCNC(=O)CC[C@H](NC(=O)CCCCCCCCCCCCCCCCCCC(=O)O)C(=O)O)C(=O)N[C@@H](CC(N)=O)C(=O)N[C@@H]([C@@H](C)O)C(=O)N[C@@H](C)C(=O)N[C@@H]([C@@H](C)O)C(=O)N1)[C@@H](C)O)C(=O)N1CCC[C@H]1C(=O)N[C@@H](CO)C(=O)N[C@@H](CO)C(=O)N[C@H](C(=O)N1CCC[C@H]1C(=O)N[C@H](C(=O)NCC(=O)N[C@@H](CO)C(=O)N[C@@H](CC(N)=O)C(=O)N[C@H](C(=O)N[C@@H](Cc1ccc(O)cc1)C(N)=O)[C@@H](C)O)C(C)C)[C@@H](C)O, also called compound 62) | 0.539
4 | K([γGlu-γGlu-C20 diacid])CNTATCATQRLAEFLRHSSPNFGAIPSSTNVGRNTY-NH2 (disulfide 2-7; N-terminus assumed; SMILES CC[C@H](C)[C@H](NC(=O)[C@H](C)NC(=O)CNC(=O)[C@H](Cc1ccccc1)NC(=O)[C@H](CC(N)=O)NC(=O)[C@@H]1CCCN1C(=O)[C@H](CO)NC(=O)[C@H](CO)NC(=O)[C@H](Cc1c[nH]cn1)NC(=O)[C@H](CCCNC(=N)N)NC(=O)[C@H](CC(C)C)NC(=O)[C@H](Cc1ccccc1)NC(=O)[C@H](CCC(=O)O)NC(=O)[C@H](C)NC(=O)[C@H](CC(C)C)NC(=O)[C@H](CCCNC(=N)N)NC(=O)[C@H](CCC(N)=O)NC(=O)[C@@H](NC(=O)[C@H](C)NC(=O)[C@@H]1CSSC[C@H](NC(=O)[C@@H](N)CCCCNC(=O)CC[C@H](NC(=O)CC[C@H](NC(=O)CCCCCCCCCCCCCCCCCCC(=O)O)C(=O)O)C(=O)O)C(=O)N[C@@H](CC(N)=O)C(=O)N[C@@H]([C@@H](C)O)C(=O)N[C@@H](C)C(=O)N[C@@H]([C@@H](C)O)C(=O)N1)[C@@H](C)O)C(=O)N1CCC[C@H]1C(=O)N[C@@H](CO)C(=O)N[C@@H](CO)C(=O)N[C@H](C(=O)N[C@@H](CC(N)=O)C(=O)N[C@H](C(=O)NCC(=O)N[C@@H](CCCNC(=N)N)C(=O)N[C@@H](CC(N)=O)C(=O)N[C@H](C(=O)N[C@@H](Cc1ccc(O)cc1)C(N)=O)[C@@H](C)O)C(C)C)[C@@H](C)O, also called compound 88) | 6.55
5 | K([γGlu-γGlu-C20 diacid])CNTATCATQRLAEFLRHSSPNFGAIPSSTNVGSRTY-NH2 (disulfide 2-7; N-terminus assumed; SMILES CC[C@H](C)[C@H](NC(=O)[C@H](C)NC(=O)CNC(=O)[C@H](Cc1ccccc1)NC(=O)[C@H](CC(N)=O)NC(=O)[C@@H]1CCCN1C(=O)[C@H](CO)NC(=O)[C@H](CO)NC(=O)[C@H](Cc1c[nH]cn1)NC(=O)[C@H](CCCNC(=N)N)NC(=O)[C@H](CC(C)C)NC(=O)[C@H](Cc1ccccc1)NC(=O)[C@H](CCC(=O)O)NC(=O)[C@H](C)NC(=O)[C@H](CC(C)C)NC(=O)[C@H](CCCNC(=N)N)NC(=O)[C@H](CCC(N)=O)NC(=O)[C@@H](NC(=O)[C@H](C)NC(=O)[C@@H]1CSSC[C@H](NC(=O)[C@@H](N)CCCCNC(=O)CC[C@H](NC(=O)CC[C@H](NC(=O)CCCCCCCCCCCCCCCCCCC(=O)O)C(=O)O)C(=O)O)C(=O)N[C@@H](CC(N)=O)C(=O)N[C@@H]([C@@H](C)O)C(=O)N[C@@H](C)C(=O)N[C@@H]([C@@H](C)O)C(=O)N1)[C@@H](C)O)C(=O)N1CCC[C@H]1C(=O)N[C@@H](CO)C(=O)N[C@@H](CO)C(=O)N[C@H](C(=O)N[C@@H](CC(N)=O)C(=O)N[C@H](C(=O)NCC(=O)N[C@@H](CO)C(=O)N[C@@H](CCCNC(=N)N)C(=O)N[C@H](C(=O)N[C@@H](Cc1ccc(O)cc1)C(N)=O)[C@@H](C)O)C(C)C)[C@@H](C)O, also called compound 89) | 11.2
